From patent US7172865B2, “Rapid and sensitive assay for the detection and quantification of coregulators of nucleic acid binding factors” (Saint Louis University, priority 2001, dated 2007)

Tests used:
[1] = tested on: CAP6/CAP1 and CAP2/CAP3 nucleic acid duplexes; assay: CAP assay with coumarin donor and fluorescein acceptor; assay type: binding, E. coli; conditions: 0 to 150 nM CAP, excitation 433 nm
Description: (§1) Amino-Modifier C2 dT (Glen Research, Sterling, Va.) was incorporated into positions that are equivalent to the positions at which fluorescein-dT and dabcyl-dT has been used previously in CAP2 and CAP4 oligonucleotides, respectively. Amino-Modifier C2 dT contains a reactive aliphatic amino group that can be used to covalently attach any amino-reactive fluorescence probe. CAP5 (SEQ ID NO:7) and CAP6 (SEQ ID NO:8) oligonucleotides were modified with 7-diethylaminocoumarin-3-carboxylic acid, succinimidyl ester. This fluorochrome is excited at 433 nm and the maximum emission occurs at 475 nm providing the possibility of testing the assay with different emission colors. […]
In a second experiment (FIG. 9), the pair of CAP6/CAP1 and CAP2/CAP3 nucleic acid duplexes were tested for the performance in CAP assay. In this assay format, the 7-diethylaminocoumarin-3-carboxylic acid present in the CAP6/CAP1 duplex functioned as a fluorescence donor and the fluorescein present in the CAP2/CAP3 duplex functioned as an acceptor. […] Also, as shown in the inset of FIG. 9, the ratio between the fluorescence intensities at 520 nm and 475 nm may be used to determine the concentration of nucleic acid binding proteins. […]

CAP7/CAP8/CAP9 construct = assay: CAP assay variant with DNA linked by a long flexible linker; assay type: binding, E. coli; conditions: 75 nM CAP
Description: The properties of the assay illustrated in FIG. 1 depend upon the total concentration of the nucleic acid components. By covalently linking the two DNA duplexes—i.e., the components of the assay—by a long flexible linker, the assay becomes independent of DNA concentration, within a range of detectability of fluorescence signal and within a range of concentration required for efficient protein binding. FIG. 11 illustrates the design this variant of the assay for CAP detection. The nucleic acid components of the assay were covalently linked during oligonucleotide synthesis by introducing 12 moieties of the Spacer 18 phosphoramidate (Glen Research, Sterling, Va.), the structure of which is shown in FIG. 11B. The addition of 12 units of Spacer 18 results in a distance of ˜270 Å between the linked oligonucleotides. […]
FIG. 12 illustrates the enhanced performance of the variation of the invention depicted in FIG. 11. […] The kinetics of CAP induced fluorescence quenching was also studied to determine the incubation time necessary for the completion of the assay (FIG. 12B). In this experiment, the fluorescence intensity of 50 nM of the CAP7/CAP8/CAP9 construct was monitored as a function of time at 520 nm with the excitation wavelength set at 490 nm. At the time indicated by the arrow in FIG. 12B, 75 nM CAP protein was added and the monitoring of the fluorescence signal was resumed. […]

CAP protein = CAP protein (Escherichia coli, UniProt P0ACJ8); conditions: in the absence of cAMP
[2] = tested on: CAP5/CAP3 and CAP4/CAP1 nucleic acid duplexes; assay: CAP assay with 7-diethylaminocoumarin-3-carboxylic acid donor and dabcyl acceptor; assay type: binding, E. coli; conditions: 100 nM CAP, 50 nM duplexes, 200 μM cAMP
Description: as §1, with “colors. To modify the […], ˜20 nmoles of the oligonucleotides were dissolved in 50 μl of 50 mM NaHCO3 (pH 8.3) and 50 nmoles of dry 7-diethylaminocoumarin-3-carboxylic acid, succinimidyl ester (Molecular Probes, Eugene, Oreg.) were added. The reaction mixture was incubated overnight at room temperature.” for “colors.”
In the first experiment (FIG. 8), the pair of CAP5/CAP3 and CAP4/CAP1 nucleic acid duplexes were tested in the CAP assay. In this format, the 7-diethylaminocoumarin-3-carboxylic acid label present in the CAP5/CAP3 duplex functions as the fluorescence donor and the dabcyl label present in the CAP4/CAP1 duplex functions as a fluorescence acceptor.

B1: CAP: bacterial transcription activator from E. coli which binds DNA in a sequence specific, cAMP-dependent manner (protein, UniProt P0ACJ8 2-210, looked up)
DNA-binding transcriptional …: VLGKPQTDPTLEWFLSHCHIHKYPSKSTLIHQGEKAETLYYIVKGSVAVLIKDEEGKEMILSYLNQGDFIGELGLFEEGQERSAWVRAKTACEVAEISYKKFRQLIQVNPDILMRLSAQMARRLQVTSEKVGNLAFLDVTGRIAQTLLNLAKQPDAMTHPDGMQIKITRQEIGQIVGCSRETVGRILKMLEDQNLISAHGKTIVVYGTR
What does the source list for B1?
change of emission peaks [1]: pronounced quenching of the peak at 475 nm and a pronounced enhancement of the peak at 520 nm; time for completion of the reaction (CAP7/CAP8/CAP9 construct): ≤ 20 s; quenching of the fluorescence signal (CAP7/CAP8/CAP9 construct; 50 nM construct, 200 μM cAMP): ~70%; CAP binding to the CAP1/CAP4 and CAP2/CAP3 DNA duplex (CAP protein): No detectable binding; quenching of the fluorescence signal [2]: ~70%
